Reference: patent publication US20180030151A1 (MOGAM INSTITUTE FOR BIOMEDICAL RESEARCH, published 2018)

B1: clone 12 (antibody, V domains shown)
VH: EVQLVESGGGLVKPGGSLRLSCAASGFTFSSYAMNWVRQAPGKGLEWVGTITTGGSHTYYADSVEGRFTISRDNAKNSLYLQMNSLRAEDTAVYYCARQDGHFLMDYWGQGTLVTVSS
VL: DVVMTQTPLSLPVTLGQPASISCKSSPSLLDIDGKTYLNWLQQRPGQSPKRLIYLVSKLDSGVPDRFTGSGSGTDFTLKISRVEAEDVGVYYCWQGTHFPFTFGQGTKVEIKR
notes: human IgG4/kappa IgG as purified; also called No. 12 antibody
B2: clone 1202 (antibody, V domains shown)
VH: EVQLVESGGGLVKPGGSLRLSCAASGFTFSSYAMNWVRQAPGKGLEWVGTITTGGSYTYYADSVDGRFTISRDNAKNSLYLKMNSLRAEDTAVYYCARQDGNFLMDYWGQGTLVTVSS
VL: DVVMTQTPLSLPVTLGQPASISCKSSQSLLDIDGKTYLNWLQQRPGQSPKRLIYLVSKLDSGVPDRFTGSGSGTDFTLKISRVEAEDVGVYYCWQGTHFPFTFGQGTKVEIKR
notes: scFv on yeast at selection; human IgG4/kappa IgG as purified; also called No. 1202 antibody

Legend:
[1] = target: T1, recombinant human TFPI (tissue factor pathway inhibitor) (human, UniProt P10646 29-304); experiment: cell-based or functional assay
[2] = target: T1, recombinant human TFPI (tissue factor …); experiment: cell-based or functional assay; remark: listed apart in the source
[3] = target: T1, recombinant human TFPI (tissue factor …); experiment: SPR, Biacore T-200; IgG captured on protein A (CM5), TFPI as analyte
Method: Dissociation of the TFPI associated with the antibody was induced by running 10 mM glycine-HCl (pH 1.5) at a flow rate for 30 seconds. The affinities in terms of kinetic rate constants (Kₒₙ and Koff) and equilibrium dissociation constant (KD) were evaluated using Biacore T-200 evaluation software, and the results are shown in Table 24 below.

[4] = target: T1, recombinant human TFPI (tissue factor …); experiment: cell-based or functional assay; remark: listed apart in the source
[5] = target: T1, recombinant human TFPI (tissue factor …); experiment: cell-based or functional assay; remark: listed apart in the source

Row | A405, TF/FVIIa/FX complex assay, Ab 1.56 nM [1] | A405, TF/FVIIa/FX complex assay, Ab 3.13 nM [1] | A405, TF/FVIIa/FX complex assay, Ab 6.25 nM [1] | A405, TF/FVIIa/FX complex assay, Ab 12.5 nM [1] | A405, TF/FVIIa/FX complex assay, Ab 25 nM [1] | A405, TF/FVIIa/FX complex assay, Ab 50 nM [1] | A405, TF/FVIIa/FX complex assay, Ab 100 nM [1] | effect of inhibiting TFPI, FXa activity assay, Ab 10 nM [2] | effect of inhibiting TFPI, FXa activity assay, Ab 20 nM [2] | Kd [3] | FXa assay % of FXa alone, 2.5 nM Ab, 10 nM TFPI [4] | FXa assay % of FXa alone, 5 nM Ab, 10 nM TFPI [4] | FXa assay OD, 2.5 nM Ab, 10 nM TFPI [4] | FXa assay OD, 5 nM Ab, 10 nM TFPI [4] | FXa assay OD, 10 nM Ab, 10 nM TFPI [4] | FXa assay OD, 20 nM Ab, 10 nM TFPI [4] | % of Normalized, TF/FVIIa/FX complex assay, Ab 1.56 nM [5] | % of Normalized, TF/FVIIa/FX complex assay, Ab 3.13 nM [5] | % of Normalized, TF/FVIIa/FX complex assay, Ab 6.25 nM [5] | % of Normalized, TF/FVIIa/FX complex assay, Ab 12.5 nM [5] | also measured | Binder
1 | 0.041 | 0.048 | 0.067 | 0.097 | 0.489 | 0.803 | 0.847 | ~82% | ~82% | 8.19 pM | 7.4% | 38.8% | 0.0615 | 0.321 | 0.68 | 0.678 | 4.8% | 5.6% | 7.8% | 11.4% | % of Normalized, TF/FVIIa/FX complex assay, Ab 25 nM [5]: 57.7%; % of Normalized, TF/FVIIa/FX complex assay, Ab 50 nM [5]: 94.6%; % of Normalized, TF/FVIIa/FX complex assay, Ab 100 nM [5]: 99.9% | B1
2 | 0.043 | 0.051 | 0.059 | 0.091 | 0.509 | 0.843 | 0.859 | ~82% | ~87% | 9.47 pM | 7.3% | 46.2% | 0.0605 | 0.382 | 0.676 | 0.72 | 5.1% | 6% | 6.9% | 10.7% | % of Normalized, TF/FVIIa/FX complex assay, Ab 25 nM [5]: 60%; % of Normalized, TF/FVIIa/FX complex assay, Ab 50 nM [5]: 99.4%; % of Normalized, TF/FVIIa/FX complex assay, Ab 100 nM [5]: 101% | B2
